Experimental data reported in patent US20110263454A1, “Methods of Identifying Functional Characteristics of Promoters, Transcription Modifying Proteins and Transcription Modulating Agents” (Salk Institute for Biological Studies, priority 2008, published 2011).

Experiments:
[1] = system: mABCA1 promoter; test: NHR-promoter luciferase screen, mABCA1 promoter; type: cell-based, mouse; conditions: for Luc. act., normalized to lacZ / Normalized Luc. act., normalized to control: ABCA1 promoter, hormone receptor with or without its ligand; for Normalized Luc. act., normalized to control: relative to control; for mABCA1 promoter reporter activity: transcription factor +/- ligand, control = 1.00
In short: (§1)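 CV-1 cells were co-transfected with 50 ng NHR (homodimer or NHR/RXR heterodimer), 100 ng promoter-luciferase construct and 50 ng LacZ. Luciferase was normalized to LacZ and to a no-NHR/no-ligand control.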

[2] = system: hG6PD promoter; test: NHR-promoter luciferase screen, hG6PD promoter; type: cell-based, human; conditions: for Luc. act., normalized to lacZ / Normalized Luc. act., normalized to control: G6PD promoter reporter, co-transfected HR, without or with its ligand; for Normalized Luc. act., normalized to control: relative to control; for luciferase activity normalized to lacZ activity and to a control, hG6PD: hG6PD promoter-luciferase, CV-1 cells, NHR +/- ligand, control = 1.00
In short: as §1

[3] = system: RevErba promoter; test: NHR-promoter luciferase screen, RevErba (RVRa) promoter; type: cell-based; design: key to mRevErba promoter reporter activity / Normalized Luc. act., normalized to control: luciferase activity normalized to lacZ and to control (no NHR/ligand); conditions: for Luc. act., normalized to lacZ / Normalized Luc. act., normalized to control / normalized Luc. act. on a logarithmic scale (column without head, Table 33) / negative reciprocal of normalized Luc. act. (fold repression; Table 33): RVRa promoter; for Luc. act., normalized to lacZ / Normalized Luc. act., normalized to control: HR component without or with ligand; for normalized Luc. act. on a logarithmic scale (column without head, Table 33): log10 of activity normalized to control; for mRevErba promoter reporter activity: transcription factor +/- ligand, control = 1.00; for negative reciprocal of normalized Luc. act. (fold repression; Table 33): given only where activity is below control
In short: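 Reporter readout: RevErbα promoter-driven luciferase, corrected for LacZ transfection efficiency and expressed relative to a no-receptor or no-ligand control. Receptors (V5H6-tagged, pcDNA3.1), alone or with RXR, plus any ligand, were expressed in CV-1 cells.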

[4] = system: mCAR promoter; test: NHR-promoter luciferase screen, mCAR promoter; type: cell-based, mouse; conditions: for luciferase activity normalized to lacZ activity and to a control, mCAR: mCAR promoter-luciferase, CV-1 cells, NHR +/- ligand, control = 1.00; for Luc. act., normalized to lacZ / Normalized Luc. act., normalized to control: mCAR promoter, HR/ligand component
In short: as §1

[5] = system: Bmal1 promoter; test: NHR-promoter luciferase screen, Bmal1 promoter; type: cell-based, mouse; conditions: for Luc. act., normalized to lacZ / Normalized Luc. act., normalized to control: Bmal1 promoter, HR component without or with ligand; for mBmal1 promoter reporter activity: transcription factor +/- ligand, control = 1.00
In short: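 Luciferase activity was measured 48 h after transfection, normalized to LacZ and then to a control lacking NHR or ligand. CV-1 cells carried 100 ng Bmal1 reporter, 50 ng NHR construct and 50 ng LacZ.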

| Molecule | Luc. act., normalized to lacZ [1] | Normalized Luc. act., normalized to control [1] | mABCA1 promoter reporter activity [1] | Luc. act., normalized to lacZ [2] | Normalized Luc. act., normalized to control [2] | luciferase activity normalized to lacZ activity and to a control, hG6PD [2] | Luc. act., normalized to lacZ [3] | Normalized Luc. act., normalized to control [3] | normalized Luc. act. on a logarithmic scale (column without head, Table 33) [3] | mRevErba promoter reporter activity [3] | luciferase activity normalized to lacZ activity and to a control, mCAR [4] | Luc. act., normalized to lacZ [4] | Normalized Luc. act., normalized to control [4] | Luc. act., normalized to lacZ [5] | Normalized Luc. act., normalized to control [5] | mBmal1 promoter reporter activity [5] | negative reciprocal of normalized Luc. act. (fold repression; Table 33) [3] |
| --- | --- | --- | --- | --- | --- | --- | --- | --- | --- | --- | --- | --- | --- | --- | --- | --- | --- |
| ERR2: Estrogen Related Receptor β (NR3B2, ERRb), cDNA driver (protein, UniProt O95718 1-433, looked up) Steroid hormone receptor ERR2: MSSDDRHLGSSCGSFIKTEPSSPSSGIDALSHHSPSGSSDASGGFGLALGTHANGLDSPPMFAGAGLGGTPCRKSYEDCASGIMEDSAIKCEYMLNAIPKRLCLVCGDIASGYHYGVASCEACKAFFKRTIQGNIEYSCPATNECEITKRRRKSCQACRFMKCLKVGMLKEGVRLDRVRGGRQKYKRRLDSESSPYLSLQISPPAKKPLTKIVSYLLVAEPDKLYAMPPPGMPEGDIKALTTLCDLADRELVVIIGWAKHIPGFSSLSLGDQMSLLQSAWMEILILGIVYRSLPYDDKLVYAEDYIMDEEHSRLAGLLELYRAILQLVRRYKKLKVEKEEFVTLKALALANSDSMYIEDLEAVQKLQDLLHEALQDYELSQRHEEPWRTGKLLLTLPLLRQTAAKAVQHFYSVKLQGKVPMHKLFLEMLEAKV | 33.0 | 5.9 | 5.88 | 59.1 | 1.6 | 1.58 | 42.3 | 1.5 | 0.18 | 1.51 | 0.99 | 37.8 | 1.0 | 10.6 | 0.7 | 0.68 |  |
| CTF2: COUP-TF2 (NR2F2), cDNA driver (protein, UniProt P24468 1-414, looked up) COUP transcription factor 2: MAMVVSTWRDPQDEVPGSQGSQASQAPPVPGPPPGAPHTPQTPGQGGPASTPAQTAAGGQGGPGGPGSDKQQQQQHIECVVCGDKSSGKHYGQFTCEGCKSFFKRSVRRNLSYTCRANRNCPIDQHHRNQCQYCRLKKCLKVGMRREAVQRGRMPPTQPTHGQFALTNGDPLNCHSYLSGYISLLLRAEPYPTSRFGSQCMQPNNIMGIENICELAARMLFSAVEWARNIPFFPDLQITDQVALLRLTWSELFVLNAAQCSMPLHVAPLLAAAGLHASPMSADRVVAFMDHIRIFQEQVEKLKALHVDSAEYSCLKAIVLFTSDACGLSDVAHVESLQEKSQCALEEYVRSQYPNQPTRFGKLLLRLPSLRTVSSSVIEQLFFVRLVGKTPIETLIRDMLLSGSSFNWPYMAIQ | 4.7 | 0.8 | 0.84 | 43.9 | 1.2 | 1.17 | 27.2 | 1.0 | −0.01 | 0.97 | 0.51 | 19.3 | 0.5 | 29.5 | 1.9 | 1.89 | −1.027 |
| CTF1: COUP-TF1 (NR2F1), cDNA driver (protein, UniProt P10589 1-423, looked up) COUP transcription factor 1: MAMVVSSWRDPQDDVAGGNPGGPNPAAQAARGGGGGAGEQQQQAGSGAPHTPQTPGQPGAPATPGTAGDKGQGPPGSGQSQQHIECVVCGDKSSGKHYGQFTCEGCKSFFKRSVRRNLTYTCRANRNCPIDQHHRNQCQYCRLKKCLKVGMRREAVQRGRMPPTQPNPGQYALTNGDPLNGHCYLSGYISLLLRAEPYPTSRYGSQCMQPNNIMGIENICELAARLLFSAVEWARNIPFFPDLQITDQVSLLRLTWSELFVLNAAQCSMPLHVAPLLAAAGLHASPMSADRVVAFMDHIRIFQEQVEKLKALHVDSAEYSCLKAIVLFTSDACGLSDAAHIESLQEKSQCALEEYVRSQYPNQPSRFGKLLLRLPSLRTVSSSVIEQLFFVRLVGKTPIETLIRDMLLSGSSFNWPYMSIQCS | 5.5 | 1.0 | 0.99 | 39.7 | 1.1 | 1.06 | 18.5 | 0.7 | −0.18 | 0.66 | 0.31 | 11.8 | 0.3 | 26.1 | 1.7 | 1.67 | −1.51 |
| ERR3: Estrogen Related Receptor γ (NR3B3, ERRg), cDNA driver (protein, UniProt P62508 1-458, looked up) Estrogen-related receptor …: MDSVELCLPESFSLHYEEELLCRMSNKDRHIDSSCSSFIKTEPSSPASLTDSVNHHSPGGSSDASGSYSSTMNGHQNGLDSPPLYPSAPILGGSGPVRKLYDDCSSTIVEDPQTKCEYMLNSMPKRLCLVCGDIASGYHYGVASCEACKAFFKRTIQGNIEYSCPATNECEITKRRRKSCQACRFMKCLKVGMLKEGVRLDRVRGGRQKYKRRIDAENSPYLNPQLVQPAKKPYNKIVSHLLVAEPEKIYAMPDPTVPDSDIKALTTLCDLADRELVVIIGWAKHIPGFSTLSLADQMSLLQSAWMEILILGVVYRSLSFEDELVYADDYIMDEDQSKLAGLLDLNNAILQLVKKYKSMKLEKEEFVTLKAIALANSDSMHIEDVEAVQKLQDVLHEALQDYEAGQHMEDPRRAGKMLMTLPLLRQTSTKAVQHFYNIKLEGKVPMHKLFLEMLEAKV | 11.4 | 2.0 | 2.04 | 63.7 | 1.7 | 1.70 | 123.1 | 4.4 | 0.64 | 4.40 | 2.87 | 109.5 | 2.9 | 9.5 | 0.6 | 0.61 |  |
| Erb: Estrogen Receptor β (NR3A2, ERb), cDNA driver (protein, UniProt Q92731 1-530, looked up) Estrogen receptor beta: MDIKNSPSSLNSPSSYNCSQSILPLEHGSIYIPSSYVDSHHEYPAMTFYSPAVMNYSIPSNVTNLEGGPGRQTTSPNVLWPTPGHLSPLVVHRQLSHLYAEPQKSPWCEARSLEHTLPVNRETLKRKVSGNRCASPVTGPGSKRDAHFCAVCSDYASGYHYGVWSCEGCKAFFKRSIQGHNDYICPATNQCTIDKNRRKSCQACRLRKCYEVGMVKCGSRRERCGYRLVRRQRSADEQLHCAGKAKRSGGHAPRVRELLLDALSPEQLVLTLLEAEPPHVLISRPSAPFTEASMMMSLTKLADKELVHMISWAKKIPGFVELSLFDQVRLLESCWMEVLMMGLMWRSIDHPGKLIFAPDLVLDRDEGKCVEGILEIFDMLLATTSRFRELKLQHKEYLCVKAMILLNSSMYPLVTATQDADSSRKLAHLLNAVTDALVWVIAKSGISSQQQSMRLANLLMLLSHVRHASNKGMEHLLNMKCKNVVPVYDLLLEMLNAHVLRGCKSSITGSECSPAEDSKSKEGSQNPQSQ | 12.4 | 2.2 | 2.21 | 45.3 | 1.2 | 1.21 | 20.0 | 0.7 | −0.15 | 0.72 | 1.18 | 44.8 | 1.2 | 17.0 | 1.1 | 1.09 | −1.397 |
| CTF3: COUP-TF3 (NR2F6), cDNA driver (protein, UniProt P10588 1-404, looked up) Nuclear receptor subfamily 2 …: MAMVTGGWGGPGGDTNGVDKAGGYPRAAEDDSASPPGAASDAEPGDEERPGLQVDCVVCGDKSSGKHYGVFTCEGCKSFFKRSIRRNLSYTCRSNRDCQIDQHHRNQCQYCRLKKCFRVGMRKEAVQRGRIPHSLPGAVAASSGSPPGSALAAVASGGDLFPGQPVSELIAQLLRAEPYPAAAGRFGAGGGAAGAVLGIDNVCELAARLLFSTVEWARHAPFFPELPVADQVALLRLSWSELFVLNAAQAALPLHTAPLLAAAGLHAAPMAAERAVAFMDQVRAFQEQVDKLGRLQVDSAEYGCLKAIALFTPDACGLSDPAHVESLQEKAQVALTEYVRAQYPSQPQRFGRLLLRLPALRAVPASLISQLFFMRLVGKTPIETLIRDMLLSGSTFNWPYGSGQ | 5.6 | 1.0 | 1.01 | 32.5 | 0.9 | 0.87 | 19.1 | 0.7 | −0.17 | 0.68 | 0.29 | 11.2 | 0.3 | 21.2 | 1.4 | 1.35 | −1.467 |
